T1: recombinant human TREM2-DAP12 fusion protein on cells (human) (UniProt Q9NZC2)
T1 sequence: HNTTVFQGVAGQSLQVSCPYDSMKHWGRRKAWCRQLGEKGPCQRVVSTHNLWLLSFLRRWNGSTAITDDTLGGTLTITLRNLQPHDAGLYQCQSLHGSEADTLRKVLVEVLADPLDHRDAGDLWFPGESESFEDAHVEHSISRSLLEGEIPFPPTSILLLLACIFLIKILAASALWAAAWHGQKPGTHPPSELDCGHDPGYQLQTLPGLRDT


Target: T1, recombinant human TREM2-DAP12 fusion protein on cells (human)
Experiment: FACS, 293 cells

MFI [MFI] | Binder
1410 | Ab52 (antibody, human IgG1, V domains shown) VH: QVQLVQSGAEVKKPGASVKVSCKASGYTFTSYYIHWVRQAPGQGLEWMGIINPSGGSTSYAQKFQGRVTMTRDTSTSTVYMELSSLRSEDTAVYYCAREADDSSGYPLGLDVWGQGTMVTVSS VL: EIVMTQSPATLSVSPGERATLSCRASQSVSSNLAWYQQKPGQAPRLLIYGASTRATGIPARFSGSGSGTEFTLTISSLQSEDFAVYYCQQVNSLPPTFGGGTKVEIK
2060 | Ab45 (antibody, human IgG1, V domains shown) VH: QVQLVQSGAEVKKPGASVKVSCKASGYTFTSYYMHWVRQAPGQGLEWMGIINPSGGSTSYAQKFQGRVTMTRDTSTSTVYMELSSLRSEDTAVYYCARGPGYTTALDYYYMDVWGKGTTVTVSS VL: EIVMTQSPATLSVSPGERATLSCRASQSVSSNLAWYQQKPGQAPRLLIYGASTRATGIPARFSGSGSGTEFTLTISSLQSEDFAVYYCQQLDDWFTFGGGTKVEIK

Target: T1, recombinant human TREM2-DAP12 fusion protein on cells (human)
Experiment: FACS, hTrem2 cells

MFI [MFI] | Binder
1500 | Ab72 (antibody, human IgG1, V domains shown) VH: QVQLQESGPGLVKPSETLSLTCTVSGGSISSYYWSWIRQPPGKGLEWIGSIYYSGSTNYNPSLKSRVTISVDTSKNQFSLKLSSVTAADTAVYYCARSGTETLFDYWGQGTLVTVSS VL: DIQMTQSPSSLSASVGDRVTITCQASQDITNYLNWYQQKPGKAPKLLIYDASNLETGVPSRFSGSRSGTDFTFTISSLQPEDIATYYCQQDVNYPPTFGGGTKVEIK
1310 | Ab73 (antibody, human IgG1, V domains shown) VH: EVQLVQSGAEVKKPGESLKISCKGSGYSFTSYWIGWVRQMPGKGLEWMGIIYPGDSDTTYSPSFQGQVTISADKSISTAYLQWSSLKASDTAMYYCARAKMLDDGYAFDIWGQGTMVTVSS VL: EIVMTQSPATLSVSPGERATLSCRASQSVSSNLAWYQQKPGQAPRLLIYGASTRATGIPARFSGSGSGTEFTLTISSLQSEDFAVYYCQQDDNYPYTFGGGTKVEIK
1350 | Ab63 (antibody, human IgG1, V domains shown) VH: QVQLVQSGAEVKKPGASVKVSCKASGYTFTSYGISWVRQAPGQGLEWMGWISTYNGNTNYAQKLQGRVTMTTDTSTSTAYMELRSLRSDDTAVYYCARGSGSGYDSWYDWGQGTLVTVSS VL: DIQMTQSPSSVSASVGDRVTITCRASQGIDSWLAWYQQKPGKAPKLLIYAASSLQSGVPSRFSGSGSGTDFTLTISSLQPEDFATYYCQQAYSLPPTFGGGTKVEIK
1930 | Ab54 (antibody, human IgG1, V domains shown) VH: QVQLVQSGAEVKKPGASVKVSCKASGYTFTSYYMHWVRQAPGQGLEWMGIINPSGGSTSYAQKFQGRVTMTRDTSTSTVYMELSSLRSEDTAVYYCARGPGYTTALDYYYMDVWGKGTTVTVSS VL: DIQMTQSPSSLSASVGDRVTITCRASQSINSYLNWYQQKPGKAPKLLIYAASSLQSGVPSRFSGSGSGTDFTLTISSLQPEDFATYYCQQSDDDPFTFGGGTKVEIK
371 | Ab82 (antibody, human IgG1, V domains shown) VH: QVQLQESGPGLVKPSQTLSLTCTVSGGSISSGGYYWSWIRQHPGKGLEWIGYIYYSGSTVYNPSLKSRVTISVDTSKNQFSLKLSSVTAADTAVYYCARVSSSWYKAWGQGTMVTVSS VL: DIQMTQSPSSVSASVGDRVTITCRASQGISSWLAWYQQKPGKAPKLLIYAASSLQSGVPSRFSGSGSGTDFTLTISSLQPEDFATYYCQQASTFPITFGGGTKVEIK
684 | Ab83 (antibody, human IgG1, V domains shown) VH: QVQLQQWGAGLLKPSETLSLTCAVYGGSFSGYYWSWIRQPPGKGLEWIGEIDHSGSTKYNPSLKSRVTISVDTSKNQFSLKLSSVTAADTAVYYCARVGVVVGRPGYSAFDIWGQGTMVTVSS VL: DIQMTQSPSSVSASVGDRVTITCRASQGISSWLAWYQQKPGKAPKLLIYAASSLQSGVPSRFSGSGSGTDFTLTISSLQPEDFATYYCQQRNSLPLTFGGGTKVEIK
1460 | Ab64 (antibody, human IgG1, V domains shown) VH: EVQLVQSGAEVKKPGESLKISCKGSGYSFTSYWIGWVRQMPGKGLEWMGIIYPGDSDTRYSPSFQGQVTISADKSISTAYLQWSSLKASDTAMYYCARLGRWSSGSTAFDIWGQGTMVTVSS VL: EIVMTQSPATLSVSPGERATLSCRASQSVSSNLAWYQQKPGQAPRLLIYGASTRATGIPARFSGSGSGTEFTLTISSLQSEDFAVYYCQQDDDGYTFGGGTKVEIK

Continued, binder first:

Binder | MFI [MFI]
Ab51 (antibody, human IgG1, V domains shown) VH: QVQLVQSGAEVKKPGASVKVSCKASGYTFTSYYMHWVRQAPGQGLEWMGIINPSGGSTSYAQKFQGRVTMTRDTSTSTVYMELSSLRSEDTAVYYCARGVGGQDYYYMDVWGKGTTVTVSS VL: DIQMTQSPSSLSASVGDRVTITCRASQSISSYLNWYQQKPGKAPKLLIYAASSLQSGVPSRFSGSGSGTDFTLTISSLQPEDFATYYCQQFDDVFTFGGGTKVEIK | 1930
Ab52 (antibody, human IgG1, V domains shown) VH: QVQLVQSGAEVKKPGASVKVSCKASGYTFTSYYIHWVRQAPGQGLEWMGIINPSGGSTSYAQKFQGRVTMTRDTSTSTVYMELSSLRSEDTAVYYCAREADDSSGYPLGLDVWGQGTMVTVSS VL: EIVMTQSPATLSVSPGERATLSCRASQSVSSNLAWYQQKPGQAPRLLIYGASTRATGIPARFSGSGSGTEFTLTISSLQSEDFAVYYCQQVNSLPPTFGGGTKVEIK | 1410
Ab15 (antibody, human IgG1, V domains shown) VH: QVQLQESGPGLVKPSQTLSLTCTVSGGSISSGGYYWSWIRQHPGKGLEWIGNIYYSGSTVYNPSLKSRVTISVDTSKNQFSLKLSSVTAADTAVYYCARGLYGYGVLDVWGQGTMVTVSS VL: DIQMTQSPSSLSASVGDRVTITCQASQDISNYLNWYQQKPGKAPKLLIYDASNLETGVPSRFSGSGSGTDFTFTISSLQPEDIATYYCQQFDTYPTFGGGTKVEIK | 1610
Ab12 (antibody, human IgG1, V domains shown) VH: EVQLVQSGAEVKKPGESLKISCKGSGYSFTSYWIGWVRQMPGKGLEWMGIIYPGDSDTRYSPSFQGQVTISADKSISTAYLQWSSLKASDTAMYYCARLGHYSGTVSSYGMDVWGQGTTVTVSS VL: DIQMTQSPSSLSASVGDRVTITCRASQSISSYLNWYQQKPGKAPKLLIYAASSLQSGVPSRFSGSGSGTDFTLTISSLQPEDFATYYCQQEYAVPYTFGGGTKVEIK | 1930
Ab8 (antibody, human IgG1, V domains shown) VH: QLQLQESGPGLVKPSETLSLTCTVSGGSISSSSYYWGWIRQPPGKGLEWIGSISYSGSTYYNPSLKSRVTISVDTSKNQFSLKLSSVTAADTAVYYCARGPYRLLLGMDVWGQGTTVTVSS VL: DIQMTQSPSSLSASVGDRVTITCRASQSISSYLNWYQQKPGKAPKLLIYGASSLQSGVPSRFSGSGSGTDFTLTISSLQPEDFATYYCQQIDDTPITFGGGTKVEIK | 1620
